# According to patent EP3107577B1 (IBC Pharmaceuticals, Inc., dated 2024):
# Where two headings read alike, the source gives them in different places.
# T1: mouse Trop-2 (mouse, UniProt Q8BGV3 25-270, limits assumed)
# T1 sequence (looked up): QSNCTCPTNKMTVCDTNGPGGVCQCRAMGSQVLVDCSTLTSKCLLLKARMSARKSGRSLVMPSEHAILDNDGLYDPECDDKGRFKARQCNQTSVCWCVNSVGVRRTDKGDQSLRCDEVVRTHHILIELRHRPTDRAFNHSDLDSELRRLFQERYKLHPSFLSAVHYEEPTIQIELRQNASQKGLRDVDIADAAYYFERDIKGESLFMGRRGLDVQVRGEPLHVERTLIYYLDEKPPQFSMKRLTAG
# T2: mouse CD3 (mouse, UniProt P22646 22-108)
# T2 sequence (looked up): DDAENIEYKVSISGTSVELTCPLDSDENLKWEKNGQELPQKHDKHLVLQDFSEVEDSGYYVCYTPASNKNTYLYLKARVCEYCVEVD
# T3: Trop-2 (human, UniProt P09758 27-323)
# T3 sequence (looked up): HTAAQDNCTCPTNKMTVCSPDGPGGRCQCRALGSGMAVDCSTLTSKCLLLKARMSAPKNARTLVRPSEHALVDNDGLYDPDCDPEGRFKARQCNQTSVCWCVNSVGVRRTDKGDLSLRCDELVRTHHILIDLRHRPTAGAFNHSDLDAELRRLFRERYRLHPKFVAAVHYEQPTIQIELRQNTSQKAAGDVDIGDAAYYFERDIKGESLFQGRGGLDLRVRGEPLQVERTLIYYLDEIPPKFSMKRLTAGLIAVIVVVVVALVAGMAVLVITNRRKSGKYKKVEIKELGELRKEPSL
# B1: (E1)-3s (bispecific antibody)
# scFv: not shown
# heavy (part 1 of 2): QVQLQQSGSELKKPGASVKVSCKASGYTFTNYGMNWVKQAPGQGLKWMGWINTYTGEPTYTDDFKGRFAFSLDTSVSTAYLQISSLKADDTAVYFCARGGFGSSYWYFDVWGQGSLVTVSS
# heavy (part 2 of 2): not shown
# light: DIQLTQSPSSLSASVGDRVSITCKASQDVSIAVAWYQQKPGKAPKLLIYSASYRYTGVPDRFSGSGSGTDFTLTISSLQPEDFAVYYCQQHYITPLTFGAGTKVEIK
# notes: also called TROP2-targeting bsAb; anti-human Trop-2 x anti-human CD3 bispecific antibody; not shown: human CH1, hinge residues and Gly/Ser linker; human kappa constant domain
# B2: C-DDD2-Fab-hRS7 (Fab)
# heavy (part 1 of 2): B1 heavy (part 1 of 2)
# heavy (part 2 of 2): not shown
# light: B1 light
# notes: also called CH1-DDD2-Fab-hRS7; not shown: CH1, hinge residues and linker; kappa constant domain
# B3: C-AD2-IgG-hRS7 (antibody)
# heavy (part 1 of 2): B1 heavy (part 1 of 2)
# heavy (part 2 of 2): CGQIEYLAKQIVDNAIQQAGC
# light: B1 light
# notes: not shown: IgG heavy chain constant region and linker; kappa constant domain
# Legend:
# mouse Trop-2 = biological target: T1, mouse Trop-2; assay: not described (data not shown)
# mouse CD3 = biological target: T2, mouse CD3; assay: not described (data not shown)
# Trop-2 [1] = biological target: T3, Trop-2; assay: cell-based or functional assay
# Trop-2 [2] = biological target: T3, Trop-2; assay: cell-based or functional assay; remark: listed apart in the source
# Trop-2 [3] = biological target: T3, Trop-2; assay: assay not described; specificity EGP-1 per Table 11
# Trop-2 [4] = biological target: T3, Trop-2; assay: as above; remark: listed apart in the source
binder,measurement,setting,value
B1,binding result,mouse Trop-2,no binding
same,binding result,mouse CD3,no binding
same,"EC50, T-cell lysis of NCI-N87 cells, very weak donor T cells",Trop-2 [1],39 pM
same,"EC50, T-cell lysis of NCI-N87 cells, very weak donor T cells, with peginterferonalfa-2a",Trop-2 [1],1.4 pM
same,"IC50, T-cell killing of BxPC3 cells",Trop-2 [1],0.4 pM
same,"IC50, T-cell lysis of NCI-N87 cells, donor of very active T cells",Trop-2 [1],0.37 pM
same,"IC50, T-cell lysis of NCI-N87 cells, with 0.1 nM 20*-2b",Trop-2 [1],0.05 pM
same,"IC50, T-cell lysis of NCI-N87 cells, with 0.1 nM peginterferonalfa-2a",Trop-2 [1],0.14 pM
same,"IC50, T-cell mediated lysis of Capan-1 cells",Trop-2 [1],29 pM
same,"IC50, T-cell mediated lysis of NCI-N87 cells",Trop-2 [1],0.85 pM
same,"IC50, T cell redirected killing of BxPC3, Donor 1",Trop-2 [2],1.06 pM
same,"IC50, T cell redirected killing of BxPC3, Donor 2",Trop-2 [2],0.56 pM
same,"IC50, T cell redirected killing of BxPC3, Donor 3",Trop-2 [2],0.32 pM
same,"IC50, T cell redirected killing of Capan-1, Donor 1",Trop-2 [2],35.6 pM
same,"IC50, T cell redirected killing of Capan-1, Donor 2",Trop-2 [2],248 pM
same,"IC50, T cell redirected killing of Capan-1, Donor 4",Trop-2 [2],8.51 pM
same,"IC50, T cell redirected killing of NCI-N87, Donor 1",Trop-2 [2],6.76 pM
same,"IC50, T cell redirected killing of NCI-N87, Donor 2",Trop-2 [2],34 pM
B2,binding result,Trop-2 [3],binds
B3,binding result,Trop-2 [4],binds
